Source: the supplement of paper PMC9112550, “Optimization of the antimicrobial peptide Bac7 by deep mutational scanning” (BMC Biology, 2022)

Each sequence was assayed on Escherichia coli TOP10 (assay: shrunken log2 fold change of peptide-encoding DNA abundance (4.5 h post-induction vs induction); higher = less antimicrobial activity (less host growth inhibition)). Conditions: time post-induction: 4.5 h; library: site-saturation at positions 5, 18, 19, 20.
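Note: peptides expressed intracellularly from a pBAD plasmid library in pooled LB shake-flask culture, induced with 0.3% L-arabinose, DNA abundance read by NGS, three biological replicates, DESeq2 with apeglm shrinkage.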

| Sequence | shrunken log2 fold change |
| --- | --- |
| RRIRERPPRLPRPRPRPSFYPRP | -0.308 |
| RRIRSRPPRLPRPRPRPTWMPRP | 0.0331 |
| RRIRPRPPRLPRPRPRPYSGPRP | -0.524 |
| RRIRSRPPRLPRPRPRPTIDPRP | -0.00141 |
| RRIRHRPPRLPRPRPRPTLEPRP | 0.319 |
| RRIRSRPPRLPRPRPRPEAKPRP | 0.401 |
| RRIRGRPPRLPRPRPRPWSPPRP | 0.178 |
| RRIRSRPPRLPRPRPRPATDPRP | 0.157 |
| RRIRLRPPRLPRPRPRPFGTPRP | -0.424 |
| RRIRIRPPRLPRPRPRPTNQPRP | -0.28 |
| RRIRERPPRLPRPRPRPCRCPRP | 0.00968 |
| RRIRHRPPRLPRPRPRPWDAPRP | -0.101 |
| RRIRHRPPRLPRPRPRPAMRPRP | 1.1 |
| RRIRDRPPRLPRPRPRPILWPRP | 0.00705 |
| RRIRQRPPRLPRPRPRPMIWPRP | -0.79 |
| RRIRPRPPRLPRPRPRPELMPRP | -0.109 |
| RRIRIRPPRLPRPRPRPNVRPRP | 0.0422 |
| RRIRDRPPRLPRPRPRPAAGPRP | 0.793 |
| RRIRARPPRLPRPRPRPRGEPRP | 0.613 |
| RRIRLRPPRLPRPRPRPAKRPRP | 0.0374 |
| RRIRQRPPRLPRPRPRPMPLPRP | -0.00134 |
| RRIRGRPPRLPRPRPRPSHRPRP | -0.0458 |
| RRIRWRPPRLPRPRPRPPRVPRP | 0.626 |
| RRIRMRPPRLPRPRPRPGLVPRP | 0.294 |
| RRIRTRPPRLPRPRPRPLKEPRP | 0.825 |

| Sequence | shrunken log2 fold change |
| --- | --- |
| RRIRFRPPRLPRPRPRPSRHPRP | -0.162 |
| RRIRIRPPRLPRPRPRPPYIPRP | -0.299 |
| RRIRARPPRLPRPRPRPRGTPRP | 0.448 |
| RRIRFRPPRLPRPRPRPILEPRP | -0.133 |
| RRIRERPPRLPRPRPRPQENPRP | -0.164 |
| RRIRNRPPRLPRPRPRPNACPRP | -0.0239 |
| RRIRNRPPRLPRPRPRPHVAPRP | -0.0498 |
| RRIRARPPRLPRPRPRPVVPPRP | 0.496 |
| RRIRSRPPRLPRPRPRPTVIPRP | -0.0891 |
| RRIRMRPPRLPRPRPRPVGYPRP | 0.515 |
| RRIRCRPPRLPRPRPRPACQPRP | 0.305 |
| RRIRMRPPRLPRPRPRPSCDPRP | 0.444 |
| RRIRLRPPRLPRPRPRPRYHPRP | -0.274 |
| RRIRCRPPRLPRPRPRPLSTPRP | -0.229 |
| RRIRGRPPRLPRPRPRPMIRPRP | 0.147 |
| RRIRDRPPRLPRPRPRPDSCPRP | 0.0444 |
| RRIRLRPPRLPRPRPRPDKQPRP | -6.78e-05 |
| RRIRFRPPRLPRPRPRPHFGPRP | -0.197 |
| RRIRMRPPRLPRPRPRPSAEPRP | 2.7 |
| RRIRRRPPRLPRPRPRPNHVPRP | -0.443 |
| RRIRERPPRLPRPRPRPKHNPRP | -0.587 |
| RRIRCRPPRLPRPRPRPVHGPRP | 0.267 |
| RRIRPRPPRLPRPRPRPFRDPRP | -0.118 |
| RRIRGRPPRLPRPRPRPKNAPRP | 1.91 |
| RRIRPRPPRLPRPRPRPCTLPRP | -0.029 |

| Sequence | shrunken log2 fold change |
| --- | --- |
| RRIRIRPPRLPRPRPRPGDYPRP | -0.0189 |
| RRIRNRPPRLPRPRPRPSYSPRP | -0.555 |
| RRIRSRPPRLPRPRPRPCIGPRP | -0.18 |
| RRIRPRPPRLPRPRPRPTDDPRP | -0.392 |
| RRIRRRPPRLPRPRPRPTCWPRP | 0.225 |
| RRIRKRPPRLPRPRPRPLDVPRP | 0.0117 |
| RRIRNRPPRLPRPRPRPQCKPRP | -0.0743 |
| RRIRARPPRLPRPRPRPLWEPRP | 0.745 |
| RRIRERPPRLPRPRPRPDYFPRP | -0.249 |
| RRIRNRPPRLPRPRPRPEAEPRP | 0.497 |
| RRIRQRPPRLPRPRPRPDEMPRP | -0.0225 |
| RRIRYRPPRLPRPRPRPRNRPRP | -0.0543 |
| RRIRWRPPRLPRPRPRPHKFPRP | -0.307 |
| RRIRKRPPRLPRPRPRPIKPPRP | 0.0885 |
| RRIRFRPPRLPRPRPRPWKLPRP | -0.0164 |
| RRIRTRPPRLPRPRPRPIGHPRP | -0.111 |
| RRIRERPPRLPRPRPRPSTCPRP | -0.324 |
| RRIRSRPPRLPRPRPRPVWWPRP | 0.131 |
| RRIRNRPPRLPRPRPRPKRDPRP | 0.411 |
| RRIRGRPPRLPRPRPRPFGIPRP | -0.0144 |
| RRIRRRPPRLPRPRPRPCASPRP | 0.0214 |
| RRIRERPPRLPRPRPRPIEPPRP | -0.26 |
| RRIRWRPPRLPRPRPRPEDWPRP | 0.947 |
| RRIRLRPPRLPRPRPRPMMIPRP | -0.203 |
| RRIRIRPPRLPRPRPRPLQNPRP | -0.359 |

| Sequence | shrunken log2 fold change |
| --- | --- |
| RRIRTRPPRLPRPRPRPNEHPRP | -0.198 |
| RRIRVRPPRLPRPRPRPTTFPRP | -0.118 |
| RRIRFRPPRLPRPRPRPNYPPRP | -0.268 |
| RRIRNRPPRLPRPRPRPTCWPRP | 0.696 |
| RRIRKRPPRLPRPRPRPAWSPRP | 0.202 |
| RRIRRRPPRLPRPRPRPDMRPRP | 0.415 |
| RRIRERPPRLPRPRPRPPLDPRP | 0.0357 |
| RRIRARPPRLPRPRPRPQAAPRP | 1.14 |
| RRIRQRPPRLPRPRPRPFLKPRP | -0.939 |
| RRIRIRPPRLPRPRPRPQYTPRP | -1.18 |
| RRIRHRPPRLPRPRPRPGAFPRP | 0.175 |
| RRIRMRPPRLPRPRPRPYEAPRP | 0.029 |
| RRIRWRPPRLPRPRPRPYVVPRP | -0.256 |
| RRIRQRPPRLPRPRPRPCVDPRP | 0.148 |
| RRIRRRPPRLPRPRPRPWGNPRP | 0.352 |
| RRIRNRPPRLPRPRPRPRKAPRP | 0.473 |
| RRIRWRPPRLPRPRPRPSRIPRP | -0.338 |
| RRIRPRPPRLPRPRPRPGEWPRP | 0.214 |
| RRIRFRPPRLPRPRPRPSKYPRP | -0.868 |
| RRIRTRPPRLPRPRPRPSDSPRP | -0.214 |
| RRIRERPPRLPRPRPRPYDKPRP | -1.41 |
| RRIRFRPPRLPRPRPRPSRNPRP | -0.346 |
| RRIRQRPPRLPRPRPRPWAKPRP | -0.000896 |
| RRIRMRPPRLPRPRPRPAVWPRP | 1.08 |
| RRIRVRPPRLPRPRPRPAWPPRP | 0.537 |

| Sequence | shrunken log2 fold change |
| --- | --- |
| RRIRHRPPRLPRPRPRPWWVPRP | -0.136 |
| RRIRCRPPRLPRPRPRPRQKPRP | 0.466 |
| RRIRSRPPRLPRPRPRPGESPRP | 0.249 |
| RRIRSRPPRLPRPRPRPQPFPRP | -0.0168 |
| RRIRYRPPRLPRPRPRPQSEPRP | -0.37 |
| RRIRWRPPRLPRPRPRPNDLPRP | 0.0302 |
| RRIRERPPRLPRPRPRPAWCPRP | 0.238 |
| RRIRRRPPRLPRPRPRPYLSPRP | -0.288 |
| RRIRYRPPRLPRPRPRPFRPPRP | -0.0325 |
| RRIRSRPPRLPRPRPRPMKFPRP | -0.0589 |
| RRIRLRPPRLPRPRPRPRTQPRP | 0.0772 |
| RRIRMRPPRLPRPRPRPWLWPRP | 0.0882 |
| RRIRTRPPRLPRPRPRPQHCPRP | -0.0947 |
| RRIRNRPPRLPRPRPRPHSSPRP | -0.00587 |
| RRIRRRPPRLPRPRPRPGRSPRP | -0.104 |
| RRIRKRPPRLPRPRPRPRVHPRP | 0.252 |
| RRIRDRPPRLPRPRPRPNDWPRP | -0.0967 |
| RRIRSRPPRLPRPRPRPNKAPRP | 0.0174 |
| RRIRWRPPRLPRPRPRPECQPRP | -0.0508 |
| RRIRGRPPRLPRPRPRPSEGPRP | 0.356 |
| RRIRMRPPRLPRPRPRPEPPPRP | 1.76 |
| RRIRRRPPRLPRPRPRPPRHPRP | 1.08 |
| RRIRLRPPRLPRPRPRPFPMPRP | -0.312 |
| RRIRHRPPRLPRPRPRPGFAPRP | 0.142 |
| RRIRIRPPRLPRPRPRPIFCPRP | -0.0695 |

| Sequence | shrunken log2 fold change |
| --- | --- |
| RRIRVRPPRLPRPRPRPPFSPRP | 0.15 |
| RRIRARPPRLPRPRPRPIPNPRP | -0.069 |
| RRIRFRPPRLPRPRPRPWRQPRP | -0.103 |
| RRIRFRPPRLPRPRPRPCTCPRP | -0.187 |
| RRIRERPPRLPRPRPRPAQLPRP | -0.124 |
| RRIRGRPPRLPRPRPRPNNTPRP | -0.0658 |
| RRIRMRPPRLPRPRPRPQSVPRP | 0.0409 |
| RRIRSRPPRLPRPRPRPGKNPRP | -0.166 |
| RRIRYRPPRLPRPRPRPTERPRP | -0.532 |
| RRIRNRPPRLPRPRPRPDFGPRP | -0.0978 |
| RRIRSRPPRLPRPRPRPSTDPRP | -0.168 |
| RRIRLRPPRLPRPRPRPGKIPRP | -0.125 |
| RRIRARPPRLPRPRPRPLKHPRP | -0.0681 |
| RRIRNRPPRLPRPRPRPPVNPRP | -0.249 |
| RRIRWRPPRLPRPRPRPWTQPRP | 0.272 |
| RRIRPRPPRLPRPRPRPITAPRP | -0.187 |
| RRIRLRPPRLPRPRPRPKGFPRP | -0.109 |
| RRIRQRPPRLPRPRPRPDVYPRP | 0.0517 |
| RRIRNRPPRLPRPRPRPWFSPRP | -0.796 |
| RRIRQRPPRLPRPRPRPIAMPRP | -0.0149 |
| RRIRGRPPRLPRPRPRPICQPRP | 0.655 |
| RRIRNRPPRLPRPRPRPGHKPRP | 0.0903 |
| RRIRKRPPRLPRPRPRPRNMPRP | -0.162 |
| RRIRCRPPRLPRPRPRPLDRPRP | -0.478 |
| RRIRWRPPRLPRPRPRPKVTPRP | -0.165 |
